{
  "source": "patent US20260034244A1",
  "target": "VEGFR-2",
  "data": [
    {"substance": "VEGF-A (from UniProt P15692 27-191) (ligand)", "values": [
      {"measurement": "EC50 (read off the curve)", "result": 5, "unit": "ng/mL"}
    ]}
  ]
}
